Laboratory results taken from the supplement of paper PMC11246515.
± gives the standard deviation of the averaged measurements.

Assay: total protein half-life in vivo (active degradation + dilution); higher = more stable protein
[1] = E. coli NCM3722 delta-clpP delta-lon delta-hslV, growth: N-lim chemostat, doubling time 6 h
[2] = E. coli NCM3722 delta-clpP, growth: N-lim chemostat, doubling time 6 h
[3] = E. coli NCM3722 delta-hslV, growth: N-lim chemostat, doubling time 6 h
[4] = E. coli NCM3722 delta-lon, growth: N-lim chemostat, doubling time 6 h
[5] = E. coli NCM3722 delta-smpB, growth: N-lim chemostat, doubling time 6 h
[6] = wild type E. coli NCM3722, growth: C-lim chemostat, doubling time 3 h
[7] = wild type E. coli NCM3722, growth: C-lim chemostat, doubling time 6 h
[8] = wild type E. coli NCM3722, growth: C-lim chemostat, doubling time 12 h
[9] = wild type E. coli NCM3722, growth: N-lim chemostat, doubling time 6 h
[10] = wild type E. coli NCM3722, growth: N-lim chemostat, doubling time 12 h
[11] = wild type E. coli NCM3722, growth: P-lim chemostat, doubling time 6 h
[12] = wild type E. coli NCM3722, growth: P-lim chemostat, doubling time 12 h

Row | Sequence | total protein half-life in vivo [1] [h] | total protein half-life in vivo [2] [h] | total protein half-life in vivo [3] [h] | total protein half-life in vivo [4] [h] | total protein half-life in vivo [5] [h] | total protein half-life in vivo [6] [h] | total protein half-life in vivo [7] [h] | total protein half-life in vivo [8] [h] | total protein half-life in vivo [9] [h] | total protein half-life in vivo [10] [h] | total protein half-life in vivo [11] [h] | total protein half-life in vivo [12] [h]
1 | MKLVGSYTSPFVRKLSILLLEKGITFEFINELPYNADNGVAQFNPLGKVPVLVTEEGECWFDSPIIAEYIELMNVAPAMLPRDPLESLRVRKIEALADGIMDAGLVSVREQARPAAQQSEDELLRQREKINRSLDVLEGYLVDGTLKTDTVNLATIAIACAVGYLNFRRVAPGWCVDRPHLVKLVENLFSRESFARTEPPKA [P0ACA1] | 5.35 ± 1.8 | 3.78 ± 0.28 | 4.118 ± 0.04 | 4.31 ± 0.48 | 4.22 ± 0.18 | 3.22 ± 0.13 | 5.52 ± 0.17 | 10.7 ± 0.87 | 4.16 ± 0.18 | 6.719 ± 0.0095 | 5.51 ± 0.23 | 12 ± 1
2 | MKMIEVVAAIIERDGKILLAQRPAQSDQAGLWEFAGGKVEPDESQRQALVRELREELGIEATVGEYVASHQREVSGRIIHLHAWHVPDFHGTLQAHEHQALVWCSPEEALQYPLAPADIPLLEAFMALRAARPAD | 4.73 | 4.63 | – | 5.61 | 4.07 | 3.25 | 4.61 ± 0.59 | 8.63 | 3.82 | 6.31 ± 0.54 | 4.59 | 8.52 ± 0.99
3 | MKMNKSLIVLCLSAGLLASAPGISLADVNYVPQNTSDAPAIPSAALQQLTWTPVDQSKTQTTQLATGGQQLNVPGISGPVAAYSVPANIGELTLTLTSEVNKQTSVFAPNVLILDQNMTPSAFFPSSYFTYQEPGVMSADRLEGVMRLTPALGQQKLYVLVFTTEKDLQQTTQLLDPAKAYAKGVGNSIPDIPDPVARHTTDGLLKLKVKTNSSSSVLVGPLFGSSAPAPVTVGNTAAPAVAAPAPAPVKKSEPMLNDTESYFNTAIKNAVAKGDVDKALKLLDEAERLGSTSARSTFISSVKGKG | 5.04 ± 2.7 | 3.08 | 6.28 | 3.75 ± 0.98 | 2.82 ± 0.1 | 2.84 ± 0.031 | 4.94 ± 0.13 | 10.5 ± 1.6 | 3.93 ± 0.67 | 7.51 ± 0.25 | 4.18 | 6.149 ± 0.0079
4 | MKMVSRITAIGLAGVAICYLGLSGYVWYHDNKRSKQADVQASAVSENNKVLGFLREKGCDYCHTPSAELPAYYYIPGAKQLMDYDIKLGYKSFNLEAVRAALLADKPVSQSDLNKIEWVMQYETMPPTRYTALHWAGKVSDEERAEILAWIAKQRAEYYASNDTAPEHRNEPVQPIPQKLPTDAQKVALGFALYHDPRLSADSTISCAHCHALNAGGVDGRKTSIGVGGAVGPINAPTVFNSVFNVEQFWDGRAATLQDQAGGPPLNPIEMASKSWDEIIAKLEKDPQLKTQFLEVYPQGFSGENITDAIAEFEKTLITPDSPFDKWLRGDENALTAQQKKGYQLFKDNKCATCHGGIILGGRSFEPLGLKKDFNFGEITAADIGRMNVTKEERDKLRQKVPGLRNVALTAPYFHRGDVPTLDGAVKLMLRYQVGKELPQEDVDDIVAFLHSLNGVYTPYMQDKQ | > 8 | 4.69 | 5.53 | – | 4.76 | 3.28 ± 0.2 | 5.27 ± 1 | 12.2 | 5.16 | 10.8 | 5.31 | 11 ± 1.4
5 | MKNFEVLQPLQNSLSGLPLWVSERILQQINQLTHYEPVIGIMGKTGAGKSSLCNALFAGEVSPVSDVAACTRDPLRFRLQIGEHFMTIVDLPGVGESGVRDTEYAALYREQLPRLDLILWLIKADDRALATDEHFYRQVIGEAYRHKMLFVISQSDKAEPTSGGNILSTEQKQNISRKICLLHELFQPVHPVCAVSVRLQWGLRVMAERMIKCLPREASSPVVALLQHPFRTTVAREQARDDFGETVGAILDTVSTFPLIPAPVRTIIQAVRSSVVSVARAVWDFFF | – | – | 3.97 | – | – | – | – | 10.6 | – | – | – | –
6 | MKNIKFSLAWQILFAMVLGILLGSYLHYHSDSRDWLVVNLLSPAGDIFIHLIKMIVVPIVISTLVVGIAGVGDAKQLGRIGAKTIIYFEVITTVAIILGITLANVFQPGAGVDMSQLATVDISKYQSTTEAVQSSSHGIMGTILSLVPTNIVASMAKGEMLPIIFFSVLFGLGLSSLPATHREPLVTVFRSISETMFKVTHMVMRYAPVGVFALIAVTVANFGFSSLWPLAKLVLLVHFAILFFALVVLGIVARLCGLSVWILIRILKDELILAYSTASSESVLPRIIEKMEAYGAPVSITSFVVPTGYSFNLDGSTLYQSIAAIFIAQLYGIDLSIWQEIILVLTLMVTSKGIAGVPGVSFVVLLATLGSVGIPLEGLAFIAGVDRILDMARTALNVVGNALAVLVIAKWEHKFDRKKALAYEREVLGKFDKTADQ | – | 2.63 | – | – | – | 2.87 | 4.95 | > 16 | – | – | – | 6.24
7 | MKNIVPDYRLDMVGEPCPYPAVATLEAMPQLKKGEILEVVSDCPQSINNIPLDARNHGYTVLDIQQDGPTIRYLIQK [P0AA31] | – | – | – | – | – | 3.04 ± 0.69 | 5.2 ± 0.98 | 6.03 | – | – | – | –
8 | MKNLIAELLFKLAQKEEESKELCAQVEALEIIVTAMLRNMAQNDQQRLIDQVEGALYEVKPDASIPDDDTELLRDYVKKLLKHPRQ [P0AAN9] | – | 3.74 ± 0.97 | 4.38 ± 0.94 | 6.09 ± 1.4 | 4.195 ± 0.0044 | 3.54 ± 0.59 | 4.96 ± 0.47 | 7.25 ± 1.9 | 3.43 ± 0.67 | 8.18 ± 5.6 | 4.02 ± 1.8 | 10.1 ± 0.93
9 | MKNQAHPIIVVKRRKAKSHGAAHGSWKIAYADFMTAMMAFFLVMWLISISSPKELIQIAEYFRTPLATAVTGGDRISNSESPIPGGGDDYTQSQGEVNKQPNIEELKKRMEQSRLRKLRGDLDQLIESDPKLRALRPHLKIDLVQEGLRIQIIDSQNRPMFRTGSADVEPYMRDILRAIAPVLNGIPNRISLSGHTDDFPYASGEKGYSNWELSADRANASRRELMVGGLDSGKVLRVVGMAATMRLSDRGPDDAVNRRISLLVLNKQAEQAILHENAESQNEPVSALEKPEVAPQVSVPTMPSAEPR [P0AF06] | – | – | – | – | – | 0.683 ± 0.017 | 1.21 | 1.33 | – | – | – | –
